Assay [1] addresses T1, human von Hippel-Lindau tumor suppressor protein pVHL (19 kDa) (human, UniProt P40337-3 1-160).
T1 construct: numbers count on: the 30 kDa isoform (Y98, W117 and so on)
The experiment in a line: ELISA; ELISA-based binding assay: pVHL or dVHL (10 µg/ml, 500 nM, in 10 mM Tris-HCl pH 8, 200 mM NaCl, 200 mM GnHCl) coated on the plate overnight at 4°C, blocked with 5% BSA; TAMRA-labelled peptide at increasing concentrations, 1 h at 25°C; fluorescence at 580 nm, after subtraction of the BSA control. Conditions: both partners purified.

For assay [2], the target named is T2, Drosophila von Hippel-Lindau protein dVHL (Drosophila melanogaster, UniProt Q9V3C1 1-178).
T2 construct: Drosophila melanogaster VHL (dVHL), ORF re-engineered to E. coli codon usage, cloned in pET14b (NdeI/XhoI); migrated as a 19 kDa protein; also called Drosophila VHL
T2 sequence (looked up): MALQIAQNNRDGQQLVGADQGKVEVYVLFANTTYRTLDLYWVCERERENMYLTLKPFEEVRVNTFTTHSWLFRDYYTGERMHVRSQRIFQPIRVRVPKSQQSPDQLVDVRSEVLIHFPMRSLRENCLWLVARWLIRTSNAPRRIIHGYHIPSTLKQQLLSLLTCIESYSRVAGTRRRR
The description is as above. Conditions: both partners purified.

Where no end group is shown, it is not given here. [ ]: non-standard residue; d: D form. Hyp = O=C(O)[C@@H]1C[C@@H](O)CN1

T1 sequence (P40337 54-213): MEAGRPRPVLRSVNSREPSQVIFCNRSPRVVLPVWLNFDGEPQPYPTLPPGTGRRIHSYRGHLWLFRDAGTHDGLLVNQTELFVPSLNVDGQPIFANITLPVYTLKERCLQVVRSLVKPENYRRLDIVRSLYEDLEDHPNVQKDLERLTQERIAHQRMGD

B1: Hyp402-ODD-HIF peptide (HIF1-α residues 395-413, hydroxyproline 402, TAMRA-labelled) (peptide)
peptide: DALTLLA[Hyp]AAGDTIISLDF
modifications: also: TAMRA label, position not given here
notes: human HIF1-α, residues 395-413 of the oxygen dependent degradation domain; also called HIF1-α P402; HIF1-α-derived peptide; source: synthetic peptide (Hy Laboratory Ltd, Israel)
For B1, in assay [1], the “fold stronger binding than to dVHL” value is ~1.5 fold. Also, the binding result in assay [2] was “binds”.

B2: Hyp850-ODD-SIMA peptide (SIMA residues 841-857, hydroxyproline 850, TAMRA-labelled) (peptide)
peptide: SFEAFAGRA[Hyp]YIPIDDD
modifications: also: TAMRA label, position not given here
notes: Drosophila SIMA (fly homolog of HIF1-α), residues 841-857 of its ODD; The peptide has two prolines (P850 and P853); by its name the hydroxylated one is P850; also called SIMA-derived peptide; source: synthetic peptide (Hy Laboratory Ltd, Israel)
Consider B2, for which the “fold stronger binding than to dVHL” value in assay [1] is ~1.5 fold. For the same molecule, in assay [2], the binding result is listed as “binds”.

The record behind these values is PMC4195687, “Computational and Experimental Characterization of dVHL Establish a Drosophila Model of VHL Syndrome” (PLoS ONE, 2014).
